# Patent US20100098693A1 (published 2010)
# B1: chimeric HIRMAb (chimeric monoclonal antibody to the human insulin receptor) (antibody, human IgG1, kappa)
# heavy: not shown
# light: DIQMTQSPSSLSASLGERVSLTCRASQDIGGNLYWLQQGPDGTIKRLIYATSSLDSGVPKRFSGSRSGSDYSLTISSLESEDFVDYYCLQYSSSPWTFGGGTKMEIKRTVAAPSVFIFPPSDEQLKSGTASVVCLLNNFYPREAKVQWKVDNALQSGNSQESVTEQDSKDSTYSLSSTLTLSKADYEKHKVYACEVTHQGLSSPVTKSFNRGEC
# notes: Chimeric mouse/human IgG1 kappa; also called engineered HIRMAb
# B2: HIRMAb-PON1 fusion protein, Arg-192 allozyme (PON1 fused to the carboxyl terminus of the HIRMAb heavy chain) (antibody)
# heavy: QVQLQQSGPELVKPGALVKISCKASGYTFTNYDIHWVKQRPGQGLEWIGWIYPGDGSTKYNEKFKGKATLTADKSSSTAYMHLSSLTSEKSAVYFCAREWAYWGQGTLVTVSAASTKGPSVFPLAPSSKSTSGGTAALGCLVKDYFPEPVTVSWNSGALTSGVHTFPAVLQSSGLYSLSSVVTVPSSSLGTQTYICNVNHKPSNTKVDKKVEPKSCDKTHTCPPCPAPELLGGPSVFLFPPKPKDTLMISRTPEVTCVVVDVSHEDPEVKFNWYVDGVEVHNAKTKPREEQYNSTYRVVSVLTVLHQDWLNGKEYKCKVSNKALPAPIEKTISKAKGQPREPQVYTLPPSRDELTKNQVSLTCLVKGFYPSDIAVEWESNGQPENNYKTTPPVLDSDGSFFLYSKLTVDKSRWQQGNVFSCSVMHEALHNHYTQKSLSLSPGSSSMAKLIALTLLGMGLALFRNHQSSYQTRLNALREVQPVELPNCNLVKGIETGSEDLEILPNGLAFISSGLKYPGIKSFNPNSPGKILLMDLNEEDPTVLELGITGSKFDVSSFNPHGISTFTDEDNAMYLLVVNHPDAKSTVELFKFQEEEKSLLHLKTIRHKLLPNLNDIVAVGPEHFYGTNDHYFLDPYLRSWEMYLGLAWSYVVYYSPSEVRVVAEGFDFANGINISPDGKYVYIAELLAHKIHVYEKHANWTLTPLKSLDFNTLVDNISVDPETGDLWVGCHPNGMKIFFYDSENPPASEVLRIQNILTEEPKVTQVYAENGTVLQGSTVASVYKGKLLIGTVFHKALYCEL
# light: B1 light
# notes: IgG-enzyme fusion antibody
# B3: HIRMAb-PON1 fusion protein, Gln-192 allozyme (antibody, human IgG1, kappa)
# heavy: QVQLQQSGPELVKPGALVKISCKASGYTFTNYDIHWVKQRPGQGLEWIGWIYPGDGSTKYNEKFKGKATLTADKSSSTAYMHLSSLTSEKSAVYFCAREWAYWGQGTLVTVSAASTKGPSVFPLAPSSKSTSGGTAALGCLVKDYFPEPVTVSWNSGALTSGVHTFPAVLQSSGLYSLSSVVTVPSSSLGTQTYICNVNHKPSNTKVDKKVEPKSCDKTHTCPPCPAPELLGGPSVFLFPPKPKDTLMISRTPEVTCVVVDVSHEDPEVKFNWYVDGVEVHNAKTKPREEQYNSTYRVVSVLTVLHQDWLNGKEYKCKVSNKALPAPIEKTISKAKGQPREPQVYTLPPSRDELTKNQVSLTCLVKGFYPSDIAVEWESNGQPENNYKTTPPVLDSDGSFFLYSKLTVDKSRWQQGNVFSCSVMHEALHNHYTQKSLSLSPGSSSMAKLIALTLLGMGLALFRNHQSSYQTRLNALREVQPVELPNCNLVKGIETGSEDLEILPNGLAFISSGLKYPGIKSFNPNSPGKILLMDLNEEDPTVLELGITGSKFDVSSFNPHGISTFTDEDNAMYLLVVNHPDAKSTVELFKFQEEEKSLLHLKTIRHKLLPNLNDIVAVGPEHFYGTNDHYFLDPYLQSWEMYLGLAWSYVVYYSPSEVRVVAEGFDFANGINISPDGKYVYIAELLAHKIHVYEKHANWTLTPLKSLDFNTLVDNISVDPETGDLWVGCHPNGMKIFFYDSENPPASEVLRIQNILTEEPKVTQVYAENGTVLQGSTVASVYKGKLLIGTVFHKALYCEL
# light: B1 light
# Legend:
# [1] = biological target: T1, human insulin receptor extracellular domain (HIR ECD), lectin affinity purified from transfected CHO cells (human, UniProt P06213 28-956, limits assumed); test: ELISA, HIR ECD plated, detection with biotinylated anti-human IgG; printed as ED50 (assay of FIG. 4)
# T1 construct: extracellular domain; Secreted ECD purified on a wheat germ agglutinin column
# Procedure: (§1) The affinity of the HIRMAb-PON1 fusion protein for the HIR extracellular domain (ECD) was determined with an ELISA using the lectin affinity purified HIR ECD. Chinese hamster ovary (CHO) cells permanently transfected with the HIR ECD were grown in serum free media, and the HIR ECD was purified with a wheat germ agglutinin affinity column. The HIR ECD (0.2 ug/well) was plated on high binding 96-well plates, and the binding of the HIRMAb, or the HIRMAb-PON1 fusion protein to the HIR ECD was detected with a biotinylated goat anti-human IgG (H+L) antibody (0.3 μg/well), and the avidin-biotinylated peroxidase detection system.
# [2] = biological target: T1, human insulin receptor extracellular …; test: ELISA, HIR ECD plated; printed as ED50 (second assay, run with the Gln-192 allozyme)
# Procedure: as §1
# [3] = biological target: T1, human insulin receptor extracellular …; test: ELISA, HIR ECD plated, detection with biotinylated anti-human IgG; printed as ED50 (assay of FIG. 4, Arg-192 allozyme)
# Procedure: as §1
# [4] = biological target: T1, human insulin receptor extracellular …; test: ELISA, HIR ECD plated; printed as ED50 (second assay, Gln-192 allozyme)
# Procedure: as §1
binder,measurement,setting,value
B1,EC50,[1],0.55 nM
same,EC50,[2],0.48 nM
B2,EC50,[3],1.1 nM
B3,EC50,[4],0.96 nM
